Consider two molecules from publication PMC4278837, “A Cyclic Peptidic Serine Protease Inhibitor: Increasing Affinity by Increasing Peptide Flexibility” (PLoS ONE, 2014).

Bridge positions count the residues as written; N and C are the ends. Ends that are not written are not given here.

What all share (assay): enzyme inhibition (steady state, chromogenic substrate S-2444); about 2 nM enzyme (purified or conditioned medium of transfected cells) pre-incubated 15 min with varied peptide in HBS (10 mM HEPES pH 7.4, 140 mM NaCl) with 0.1% BSA at 37°C; substrate about KM; fit for competitive inhibition; highest peptide concentration 400 µM
Assay [1] concerns the target muPA-K143A (murine).
Assay [2] concerns the target muPA-K41A (murine).
Assay [3] deals with muPA-S190A (murine).
Assay [4] deals with muPA-V213T (murine).
For assay [5], the target named is muPA-Y99A (murine).

As usually defined, the Ki is the equilibrium dissociation constant of an inhibitor or competing ligand from its target. Read a low Ki as tighter binding.

Consider CPAYSRYLAC (disulfide 1-10 (inferred)) [Mupain-1 D9A], for which the Ki stood at 4.34 µM in assay [1]; 0.27 µM in assay [2]; 3.02 µM in assay [3]; 0.373 µM in assay [4]; 27.2 µM in assay [5].

As for CPAYSRYLDC (disulfide 1-10 (inferred)) [mupain-1], the Ki in assay [1] came out at 4.88 µM; in assay [2], 4.29 µM; in assay [3] it was 1.6 µM; in assay [4], 0.246 µM; in assay [5] it was 26 µM.
